Test results: patent publication US20230053131A1 (INTERVET, published 2023)

Target: T1, canine IL-4 receptor alpha on DH82 cells (canine)
T1 construct: Endogenous receptor of the canine DH82 cell line in the STAT-6 assay; also called canine IL-4Rα; IL-4R alpha
T1 chain: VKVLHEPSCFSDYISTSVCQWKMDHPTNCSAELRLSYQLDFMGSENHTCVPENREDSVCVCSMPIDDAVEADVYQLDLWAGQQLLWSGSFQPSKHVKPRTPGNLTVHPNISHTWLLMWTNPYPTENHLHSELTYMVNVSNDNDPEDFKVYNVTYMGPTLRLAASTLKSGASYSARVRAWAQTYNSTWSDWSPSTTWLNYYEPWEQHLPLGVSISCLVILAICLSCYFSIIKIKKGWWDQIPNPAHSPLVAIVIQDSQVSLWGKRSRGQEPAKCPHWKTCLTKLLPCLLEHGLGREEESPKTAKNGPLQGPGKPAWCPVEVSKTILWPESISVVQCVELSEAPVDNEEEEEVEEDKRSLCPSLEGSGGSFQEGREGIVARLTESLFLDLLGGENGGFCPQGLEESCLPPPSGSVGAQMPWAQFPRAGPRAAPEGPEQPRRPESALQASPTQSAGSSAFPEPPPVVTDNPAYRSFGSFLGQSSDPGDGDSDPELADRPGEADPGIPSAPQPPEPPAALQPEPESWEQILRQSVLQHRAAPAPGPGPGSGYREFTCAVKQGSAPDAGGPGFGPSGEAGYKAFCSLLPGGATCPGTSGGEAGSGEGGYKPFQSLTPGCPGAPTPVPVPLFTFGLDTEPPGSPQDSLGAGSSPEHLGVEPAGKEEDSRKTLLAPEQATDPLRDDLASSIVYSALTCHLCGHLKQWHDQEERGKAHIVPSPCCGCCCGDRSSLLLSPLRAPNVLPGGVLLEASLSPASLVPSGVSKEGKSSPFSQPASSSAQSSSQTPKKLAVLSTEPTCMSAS
Assay: inferred by the filing from inhibition of STAT-6 phosphorylation in DH82 cells
Experimental: Methods [0121] 1. Two tissue culture plates were seeded with 8×10⁴ DH82 cells per well (200 μL with the density of 4×10⁵ cells/mL) and incubated at 37° C. overnight. [0122] 2. The test antibodies were pre-diluted to 500 μg/mL and then 3-fold serially diluted in DH82 Cell Growth Media. The media was removed from the cell culture plates and 50 μL/well of the serially diluted test sample were transferred to each plate. [0123] 3. Canine IL-4 was diluted to 5 ng/mL in DH82 Cell Growth Media and 50 μL was added to each well of one plate. Canine IL-13 was diluted to 10 ng/mL in DH82 Cell Growth Media and 50 μL was added to each well of the second plate. The plates were incubated for 15 min at 37° C. [0124] 4. The media was removed from the plates and 100 μL per well of freshly prepared 1× lysis buffer from the AlphaLISA p-STAT-6 Assay Kit was added to the plate. The plate was agitated on a plate shaker with 350 rpm for 10 minutes at room temperature. [0125] 5. The Acceptor Mix was prepared from the AlphaLISA p-STAT6 Assay Kit and […] was added to 30 μL of the cell lysate in 96-well 1/2 Area Plates. The plates were sealed, agitated for 2 minutes at 350 rpm, and then incubated for 2 hours at room temperature. [0126] 6. […] The plates were read using the AlphaScreen settings on the Perkin Elmer EnVison.

binding result: binds
B1: c146E2VL3-cCLk-s/c146E2VH3-cIgG-Bm (antibody, V domains shown)
VH: EVQLVQSGAEVKKPGASVKVSCKASGYTFARYWMHWMKQAPGAGLDWIGMIHPDSGNINYNERFKTKATLTVDKSTSTAYMELSSLRAGDIAVYYCARQLRNAMDYWGQGTLVTVSS
VL: DIVLTQTPLSLSVSPGETASIYCRASESVDSYGNSFLNWYQQKPGQPPKLLIYRASNLASEIPDRFSGSGSRTEFTLKISRVEADDAGVYYCQQNYENPRTFGQGTKLEIKR
notes: Caninized murine anti-canine IL-4R alpha antibody, canine IgG-Bm heavy chain and canine kappa light chain; also called c146E2-H3L3
